Results as given in patent US20250243281A1 (IMMUNITAS THERAPEUTICS, published 2025).

T1: hCLEC2D (human, UniProt Q9UHP7 1-191)
T1 construct: Overexpressed on HEK293 or K562 cells; the same id is used for endogenous CLEC2D on NALM6 and Raji cells; also called LLT1
T1 sequence: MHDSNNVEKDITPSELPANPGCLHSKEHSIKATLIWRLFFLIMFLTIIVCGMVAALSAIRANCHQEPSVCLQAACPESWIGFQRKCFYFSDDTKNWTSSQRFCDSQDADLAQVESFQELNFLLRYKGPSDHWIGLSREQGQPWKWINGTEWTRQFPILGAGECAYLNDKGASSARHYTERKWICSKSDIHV

T2: hKLRF1 (human, UniProt Q9NZS2 1-231)
T2 construct: Overexpressed on HEK293 cells
T2 sequence: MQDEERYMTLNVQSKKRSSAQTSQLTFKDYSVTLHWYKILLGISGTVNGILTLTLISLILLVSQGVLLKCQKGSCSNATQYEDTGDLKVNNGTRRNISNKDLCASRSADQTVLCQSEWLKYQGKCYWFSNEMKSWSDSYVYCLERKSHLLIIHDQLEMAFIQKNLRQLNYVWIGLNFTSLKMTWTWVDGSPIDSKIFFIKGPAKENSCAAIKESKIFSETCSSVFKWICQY

T3: hKLRF2 (human, UniProt D3W0D1 1-207)
T3 construct: Overexpressed on HEK293 cells
T3 sequence: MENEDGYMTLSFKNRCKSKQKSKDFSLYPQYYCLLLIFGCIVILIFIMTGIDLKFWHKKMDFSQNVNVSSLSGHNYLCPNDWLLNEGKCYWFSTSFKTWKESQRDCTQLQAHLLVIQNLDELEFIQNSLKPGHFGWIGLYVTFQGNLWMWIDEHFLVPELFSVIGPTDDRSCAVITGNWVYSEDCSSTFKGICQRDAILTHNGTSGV

T4: hCLEC12B (human, UniProt Q2HXU8 1-276)
T4 construct: Overexpressed on HEK293 cells
T4 sequence: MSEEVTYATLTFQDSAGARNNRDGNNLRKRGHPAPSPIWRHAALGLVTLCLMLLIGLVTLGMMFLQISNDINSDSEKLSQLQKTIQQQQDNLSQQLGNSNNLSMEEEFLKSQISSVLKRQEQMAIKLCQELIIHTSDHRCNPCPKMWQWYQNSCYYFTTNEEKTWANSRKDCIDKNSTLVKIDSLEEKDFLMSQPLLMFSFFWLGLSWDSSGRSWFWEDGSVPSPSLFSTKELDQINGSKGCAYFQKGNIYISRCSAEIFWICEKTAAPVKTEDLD


Columns and labels:
hCLEC2D [1] = target: T1, hCLEC2D; test: flow cytometry, HEK293 transfectants, 100 nM antibody;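 note: antibody applied at a saturating level and incubated with cells for 30 min at room temperature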
Description: (§1) For the antibody binding assay, all cell lines were washed in phosphate-buffered saline with 0.1% bovine serum albumin (PBSA) and seeded in a 96 well plate at a density of 4×10⁴ cells per well. Washed cells were resuspended in 100 nM of antibody (a saturating concentration to measure maximum binding on cells) and incubated at room temperature for 30 minutes. […] Cells were analyzed by flow cytometry with a Thermo Fisher Attune flow cytometer.
(§2) Data were analyzed using FlowJo software. MFI for each sample was calculated and exported into Graphpad Prism.

hKLRF1 [2] = target: T2, hKLRF1; test: as above
Description: as §1, §2

hKLRF2 [3] = target: T3, hKLRF2; test: as above
Description: as §1, §2

hCLEC12B [4] = target: T4, hCLEC12B; test: as above
Description: as §1, §2

hKLRF1 [5] = target: T2, hKLRF1; test: flow cytometry; 100 nM antibody on HEK293 cells expressing KLRF1; Alexa Fluor 647 anti-human IgG; MFI
Description: as §1, §2

hKLRF2 [6] = target: T3, hKLRF2; test: flow cytometry; 100 nM antibody on HEK293 cells expressing KLRF2; Alexa Fluor 647 anti-human IgG; MFI
Description: as §1, §2

hCLEC2D [7] = target: T1, hCLEC2D; test: flow cytometry; 100 nM antibody on HEK293 cells expressing CLEC2D; Alexa Fluor 647 anti-human IgG; MFI
Description: as §1, §2

hCLEC12B [8] = target: T4, hCLEC12B; test: flow cytometry; 100 nM antibody on HEK293 cells expressing CLEC12B; Alexa Fluor 647 anti-human IgG; MFI
Description: as §1, §2

human HSP70 = target: T5, human HSP70 (human, UniProt P0DMV8 1-641); test: polyspecificity ELISA, coated HSP70, 100 nM antibody
T5 construct: polyspecificity reagent
T5 sequence (P0DMV8 whole entry): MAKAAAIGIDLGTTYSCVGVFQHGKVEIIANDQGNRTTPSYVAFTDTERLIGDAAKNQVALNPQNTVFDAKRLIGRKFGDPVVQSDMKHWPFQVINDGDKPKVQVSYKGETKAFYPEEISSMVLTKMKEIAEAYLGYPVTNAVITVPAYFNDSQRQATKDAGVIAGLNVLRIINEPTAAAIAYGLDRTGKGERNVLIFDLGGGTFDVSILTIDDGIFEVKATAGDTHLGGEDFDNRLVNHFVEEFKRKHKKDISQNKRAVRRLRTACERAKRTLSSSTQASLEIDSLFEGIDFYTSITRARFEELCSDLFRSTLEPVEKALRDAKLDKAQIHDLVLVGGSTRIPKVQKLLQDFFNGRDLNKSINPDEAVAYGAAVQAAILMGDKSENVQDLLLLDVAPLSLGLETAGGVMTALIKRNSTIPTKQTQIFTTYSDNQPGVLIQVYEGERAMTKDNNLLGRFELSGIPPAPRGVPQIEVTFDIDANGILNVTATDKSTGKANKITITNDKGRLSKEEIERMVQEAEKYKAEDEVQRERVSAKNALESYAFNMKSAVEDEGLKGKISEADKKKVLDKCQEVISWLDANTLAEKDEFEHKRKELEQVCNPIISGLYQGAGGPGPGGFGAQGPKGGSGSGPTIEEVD

Binder | % of CD161 binding (hCLEC2D [1]) [%] | % of CD161 binding (hKLRF1 [2]) [%] | % of CD161 binding (hKLRF2 [3]) [%] | % of CD161 binding (hCLEC12B [4]) [%] | binding result (hKLRF1 [5]) | binding result (hKLRF2 [6]) | binding result (hCLEC2D [7]) | binding result (hCLEC12B [8]) | Norm (signal over AdalimumAb) (human HSP70) [fold]
Ab7 (antibody, human IgG1, V domains shown, IgG purified from yeast culture) VH: EVQLLESGGGLVQPGGSLRLSCAASGFTFGQYAMSWVRQAPGKGLEWVSAISAAGGTTYYADSVKGRFTISRDNSKNTLYLQMNSLRAEDTAVYYCAKPLDSSQWADFDLWGRGTLVTVSS VL: DIQLTQSPSSVSASVGDRVTITCRASQGISSWLAWYQQKPGKAPKLLIYAASFLQSGVPSRFSGSGSGTDFTLTISSLQPEDFATYYCQQASVLPITFGGGTKVEIK | 1.09 | 0.018 | 0.04 | 0.011 | no binding (tested: 100 nM) | no binding (tested: 100 nM) | no binding (tested: 100 nM) | no binding (tested: 100 nM) | 
Ab1 (antibody, human IgG1, V domains shown, IgG purified from yeast culture) VH: EVQLLESGGGLVQPGGSLRLSCAASGFAFSTYAMSWVRQAPGKGLEWVSAISAAGGTTYYADSVKGRFTISRDNSKNTLYLQMNSLRAEDTAVYYCAKPLDSSLWADFDLWGRGTLVTVSS VL: DIQMTQSPSSVSASVGDRVTITCRASQGIDSWLAWYQQKPGKAPKLLIYAASSLQSGVPSRFSGSGSGTDFTLTISSLQPEDFATYYCQQASVLPITFGGGTKVEIK | 0.975 | 0.073 | 0.036 | 0.04 | no binding (tested: 100 nM) | no binding (tested: 100 nM) | no binding (tested: 100 nM) | no binding (tested: 100 nM) | 
Ab2 (antibody, human IgG1, V domains shown, IgG purified from yeast culture) VH: EVQLLESGGGLVQPGGSLRLSCAASGFAFSTYAMSWVRQAPGKGLEWVSAISGVGGTTYYADSVKGRFTISRDNSKNTLYLQMNSLRAEDTAVYYCAKPLDSSLWADFDLWGRGTLVTVSS VL: DIQLTQSPSSVSASVGDRVTITCRASQGISSWLAWYQQKPGKAPKLLIYYASSLQDGVPSRFSGSGSGTDFTLTISSLQPEDFATYYCQQASVLPITFGGGTKVEIK | 0.863 | 0.032 | 0.049 | 0.057 | no binding (tested: 100 nM) | no binding (tested: 100 nM) | no binding (tested: 100 nM) | no binding (tested: 100 nM) | 
Ab4 (antibody, human IgG1, V domains shown, IgG purified from yeast culture) VH: EVQLLESGGGLVQPGGSLRLSCAASGFTFERYAMSWVRQAPGKGLEWVSAISAVGGTTKYADSVKGRFTISRDNSKNTLYLQMNSLRAEDTAVYYCAKPLDSSLWADFDAWGRGTLVTVSS VL: DIQLTQSPSSVSASVGDRVTITCRASQGISSWLAWYQQKPGKAPKLLIYAASGLQSGVPSRFSGSGSGTDFTLTISSLQPEDFATYYCQQASYLPITFGGGTKVEIK | 1.11 | 0.095 | 0.056 | 0.074 | no binding (tested: 100 nM) | no binding (tested: 100 nM) | no binding (tested: 100 nM) | no binding (tested: 100 nM) | 
Ab5 (antibody, human IgG1, V domains shown, IgG purified from yeast culture) VH: EVQLLESGGGLVQPGGSLRLSCAASGFTFGQYAMSWVRQAPGKGLEWVSAISAVGGTTAYADSVKGRFTISRDNSKNTLYLQMNSLRAEDTAVYYCAKPLDSSLWADFQLWGRGTLVTVSS VL: DIQLTQSPSSVSASVGDRVTITCRASQDISSWLAWYQQKPGKAPKLLIYFASSLQSGVPSRFSGSGSGTDFTLTISSLQPEDFATYYCQQASKLPITFGGGTKVEIK | 0.872 | 0.059 | 0.035 | 0.056 | no binding (tested: 100 nM) | no binding (tested: 100 nM) | no binding (tested: 100 nM) | no binding (tested: 100 nM) | 
Ab6 (antibody, human IgG1, V domains shown, IgG purified from yeast culture) VH: EVQLLESGGGLVQPGGSLRLSCAASGFTFGQYAMSWVRQAPGKGLEWVSAISAAGGTTYYADSVKGRFTISRDNSKNTLYLQMNSLRAEDTAVYYCAKPLDSSQWADFDLWGRGTLVTVSS VL: DIQLTQSPSSVSASVGDRVTITCRASQGISSWLAWYQQKPGKAPKLLIYAASSLQSGVPSRFSGSGSGTDFTLTINSLQPEDFATYYCQQAWVLPITFGGGTKVEIK | 1.01 | 0.036 | 0.029 | 0.011 | no binding (tested: 100 nM) | no binding (tested: 100 nM) | no binding (tested: 100 nM) | no binding (tested: 100 nM) | 
Ab8 (antibody, human IgG1, V domains shown, IgG purified from yeast culture) VH: EVQLLESGGGLVQPGGSLRLSCAASGFTFGTFAMSWVRQAPGKGLEWVSAISGVGGTTYYADSVKGRFTISRDNSKNTLYLQMNSLRAEDTAVYYCAKPLDSSFWADFDLWGRGTLVTVSS VL: DIQLTQSPSSVSASVGDRVTITCRASQTISSWLAWYQQKPGKAPKLLIYAASSLQSGVPSRFSGSGSGTDFTLTISSLQPEDFATYYCQQQSVLPITFGGGTKVEIK | 0.846 | 0.031 | 0.038 | 0.049 | no binding (tested: 100 nM) | no binding (tested: 100 nM) | no binding (tested: 100 nM) | no binding (tested: 100 nM) | 
Ab9 (antibody, human IgG1, V domains shown) VH: EVQLLESGGGLVQPGGSLRLSCAASGFTFSPYAMSWVRQAPGKGLEWVSAISASGGTTYYADSVKGRFTISRDNSKNTLYLQMNSLRAEDTAVYYCAKPLDSSFWADFDLWGRGTLVTVSS VL: DIQLTQSPSSVSASVGDRVTITCRASQGISSWLAWYQQKPGKAPKLLIYAASSLQSGVPSRFSGSGSGTDFTLTISSLQPEDFATYYCQQHSVLPITFGGGTKVEIK | 0.808 | 0.042 | 0.028 | 0.025 | no binding (tested: 100 nM) | no binding (tested: 100 nM) | no binding (tested: 100 nM) | no binding (tested: 100 nM) | 
Ustekinumab (antibody, V domains shown) VH: EVQLVQSGAEVKKPGESLKISCKGSGYSFTTYWLGWVRQMPGKGLDWIGIMSPVDSDIRYSPSFQGQVTMSVDKSITTAYLQWNSLKASDTAMYYCARRRPGQGYFDFWGQGTLVTVSS VL: DIQMTQSPSSLSASVGDRVTITCRASQGISSWLAWYQQKPEKAPKSLIYAASSLQSGVPSRFSGSGSGTDFTLTISSLQPEDFATYYCQQYNIYPYTFGQGTKLEIK |  |  |  |  |  |  |  |  | 3.71
